From paper PMC3682478

Experiments:
Assay in all cases: kinetic pause assay
[1] = target: NusA NTD-S1;RNA polymerase core (Escherichia coli;Escherichia coli, UniProt P0AFF6;P0A7Z4;P0A8V2;P0A8T7 1-200;1-329;1-1342;1-1407, |)
[2] = target: NusA NTD;RNA polymerase core (Escherichia coli;Escherichia coli, UniProt P0AFF6;P0A7Z4;P0A8V2;P0A8T7 1-137;1-329;1-1342;1-1407, |)
[3] = target: NusA NTD-S1-KH;RNA polymerase core (Escherichia coli;Escherichia coli, UniProt P0AFF6;P0A7Z4;P0A8V2;P0A8T7 1-348;1-329;1-1342;1-1407, |)

Sequence of NusA NTD-S1;RNA polymerase core (P0AFF6 1-200, chain 1 of 4): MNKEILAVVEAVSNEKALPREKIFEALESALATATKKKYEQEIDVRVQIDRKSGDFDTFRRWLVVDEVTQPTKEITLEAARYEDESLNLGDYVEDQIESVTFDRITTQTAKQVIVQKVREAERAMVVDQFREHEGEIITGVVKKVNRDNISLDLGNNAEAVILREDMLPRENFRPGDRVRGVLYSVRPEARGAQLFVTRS
Sequence of NusA NTD-S1;RNA polymerase core (P0A7Z4 whole entry, chain 2 of 4): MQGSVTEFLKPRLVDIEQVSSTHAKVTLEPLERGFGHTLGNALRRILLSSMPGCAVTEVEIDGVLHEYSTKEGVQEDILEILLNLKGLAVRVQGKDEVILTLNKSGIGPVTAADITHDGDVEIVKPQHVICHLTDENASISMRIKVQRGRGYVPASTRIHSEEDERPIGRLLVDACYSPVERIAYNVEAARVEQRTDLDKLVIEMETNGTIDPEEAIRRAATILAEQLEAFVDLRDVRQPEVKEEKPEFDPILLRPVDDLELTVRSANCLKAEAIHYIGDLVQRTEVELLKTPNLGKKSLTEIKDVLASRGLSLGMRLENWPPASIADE
Sequence of NusA NTD-S1;RNA polymerase core (P0A8V2 whole entry, chain 3 of 4): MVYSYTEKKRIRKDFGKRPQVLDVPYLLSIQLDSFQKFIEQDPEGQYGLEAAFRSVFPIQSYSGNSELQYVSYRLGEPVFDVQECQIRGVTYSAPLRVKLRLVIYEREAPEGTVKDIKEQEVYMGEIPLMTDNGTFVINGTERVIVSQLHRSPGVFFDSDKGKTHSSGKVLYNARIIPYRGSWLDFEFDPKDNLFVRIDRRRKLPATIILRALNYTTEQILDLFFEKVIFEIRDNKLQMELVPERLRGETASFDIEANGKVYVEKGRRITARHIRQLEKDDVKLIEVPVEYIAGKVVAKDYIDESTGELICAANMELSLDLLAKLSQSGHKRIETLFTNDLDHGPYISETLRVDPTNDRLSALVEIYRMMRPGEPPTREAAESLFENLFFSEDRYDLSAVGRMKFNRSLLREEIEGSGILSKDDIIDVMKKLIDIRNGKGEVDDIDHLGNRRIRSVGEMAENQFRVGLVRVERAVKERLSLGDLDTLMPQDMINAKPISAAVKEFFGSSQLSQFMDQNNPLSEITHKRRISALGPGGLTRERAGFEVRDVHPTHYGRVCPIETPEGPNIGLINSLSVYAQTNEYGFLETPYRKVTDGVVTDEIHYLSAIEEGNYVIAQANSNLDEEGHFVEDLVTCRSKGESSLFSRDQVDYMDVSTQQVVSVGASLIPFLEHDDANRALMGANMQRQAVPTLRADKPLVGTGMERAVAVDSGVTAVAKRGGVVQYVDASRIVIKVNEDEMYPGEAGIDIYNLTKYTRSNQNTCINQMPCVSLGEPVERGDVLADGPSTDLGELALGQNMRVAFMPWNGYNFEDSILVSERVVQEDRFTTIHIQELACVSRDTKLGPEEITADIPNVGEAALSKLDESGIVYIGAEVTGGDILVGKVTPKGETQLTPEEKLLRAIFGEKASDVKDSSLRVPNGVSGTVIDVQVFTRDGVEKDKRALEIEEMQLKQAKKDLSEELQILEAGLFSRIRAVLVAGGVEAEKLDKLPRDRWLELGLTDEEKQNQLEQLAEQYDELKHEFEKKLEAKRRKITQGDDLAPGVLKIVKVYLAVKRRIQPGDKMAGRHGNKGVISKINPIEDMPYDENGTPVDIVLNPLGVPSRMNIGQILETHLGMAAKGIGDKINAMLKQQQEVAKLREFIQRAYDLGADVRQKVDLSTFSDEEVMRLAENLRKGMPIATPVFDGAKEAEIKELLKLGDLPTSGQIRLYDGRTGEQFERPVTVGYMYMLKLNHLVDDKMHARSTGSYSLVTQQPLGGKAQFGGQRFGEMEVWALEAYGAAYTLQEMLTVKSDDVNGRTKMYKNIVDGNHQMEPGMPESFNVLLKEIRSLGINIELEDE
Sequence of NusA NTD-S1;RNA polymerase core (P0A8T7 whole entry, chain 4 of 4): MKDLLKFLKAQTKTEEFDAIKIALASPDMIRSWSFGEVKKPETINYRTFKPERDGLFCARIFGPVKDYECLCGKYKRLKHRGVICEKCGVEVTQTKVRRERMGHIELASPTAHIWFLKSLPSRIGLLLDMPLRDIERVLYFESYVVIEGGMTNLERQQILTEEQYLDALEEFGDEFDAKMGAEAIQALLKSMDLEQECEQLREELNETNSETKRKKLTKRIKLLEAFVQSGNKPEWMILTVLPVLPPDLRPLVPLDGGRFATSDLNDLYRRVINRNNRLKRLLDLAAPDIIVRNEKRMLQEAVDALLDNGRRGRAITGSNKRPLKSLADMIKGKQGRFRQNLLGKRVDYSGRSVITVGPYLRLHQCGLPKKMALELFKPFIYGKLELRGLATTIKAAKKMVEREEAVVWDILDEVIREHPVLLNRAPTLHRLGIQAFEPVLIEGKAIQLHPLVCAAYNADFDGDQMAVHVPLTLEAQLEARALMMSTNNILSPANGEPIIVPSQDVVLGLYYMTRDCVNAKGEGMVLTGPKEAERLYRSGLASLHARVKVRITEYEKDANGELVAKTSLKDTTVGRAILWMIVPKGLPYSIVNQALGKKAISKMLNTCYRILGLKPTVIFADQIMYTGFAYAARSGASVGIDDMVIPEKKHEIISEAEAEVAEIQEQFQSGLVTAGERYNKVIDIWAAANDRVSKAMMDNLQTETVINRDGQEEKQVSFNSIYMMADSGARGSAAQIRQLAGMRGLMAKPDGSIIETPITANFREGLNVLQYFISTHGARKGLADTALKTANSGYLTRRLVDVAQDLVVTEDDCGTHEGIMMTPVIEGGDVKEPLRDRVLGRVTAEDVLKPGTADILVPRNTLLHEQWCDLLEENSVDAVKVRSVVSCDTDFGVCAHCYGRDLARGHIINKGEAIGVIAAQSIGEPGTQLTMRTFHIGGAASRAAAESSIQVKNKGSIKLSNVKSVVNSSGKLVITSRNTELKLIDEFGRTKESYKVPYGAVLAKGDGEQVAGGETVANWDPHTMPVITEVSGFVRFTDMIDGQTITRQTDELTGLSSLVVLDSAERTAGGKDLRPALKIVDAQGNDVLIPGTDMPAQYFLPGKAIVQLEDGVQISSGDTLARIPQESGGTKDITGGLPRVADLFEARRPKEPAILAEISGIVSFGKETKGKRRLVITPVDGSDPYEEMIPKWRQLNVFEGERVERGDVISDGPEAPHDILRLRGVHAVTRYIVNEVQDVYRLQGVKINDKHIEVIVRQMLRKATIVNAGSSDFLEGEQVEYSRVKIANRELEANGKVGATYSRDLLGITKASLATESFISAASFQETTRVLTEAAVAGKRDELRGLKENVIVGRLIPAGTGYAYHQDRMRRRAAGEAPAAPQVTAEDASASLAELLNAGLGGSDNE

B1: his PTC scaffold (RNA at U29) (mixed)
DNA 1: GGTCAGTACGTCCATTCGATCTTCGGAAGAGATTCAGAG
DNA 2: CTCTGAATCTCTTCCAGCACACATCAGGACGTACTGACC
RNA: CCUGACUAGUCUUUCAGGCGAUGUGUGCU
Binder B1 has a Ki [1] of 74.6 ± 19.4 nM, a Ki [2] of 55.4 ± 27.8 nM and a Ki [3] of 11.8 ± 8.7 nM.
